Test results taken from US20220174981A1, “PROLINE TOLERANT TRIPEPTIDYL PEPTIDASES AND USES THEREOF” (DuPont Nutrition Biosciences APS, priority 2014, published 2022).
Where “and” joins values, the source holds several entries; their conditions need not be identical. Equal values may be shown once.

B1: TRI071: Proline tolerant tripeptidyl peptidase TRI071 (SEQ ID No. 12 or SEQ ID No. 39) (protein, listed as Fusarium oxysporum)
chain 1: KSFSHHAEAPQGWQVQKTAKVASNTQHVFSLALTMQNVDQLESKLLDLSSPDSANYGNWLSHDELTSTFSPSKEAVASVTKWLKSKGIKHYKVNGAFIDFAADVEKANTLLGGDYQYYTKDGQTKLRTLSYSIPDDVAGHVQFVDPSTNFGGTVAFNPVPHPSRTLQERKVSPSKSTVDASCQTSITPSCLKQMYNIGDYTPDAKSGSEIGFSSFLGQAAIYSDVFKFEELFGIPKQNYTTILINNGTDDQNTAHGNFGEANLDAENIVGIAHPLPFKQYITGGSPPFVPNIDQPTEKDNQNEPYVPFFRYLLGQKDLPAVISTSYGDEEDSVPREYATLTCNMIGLLGLRGISVIFSSGDIGVGSGCLAPDYKTVEFNAIFPATCPYLTSVGGTVDVTPEIAWEGSSGGFSKYFPRPSYQDKAIKKYMKTVSKETKKYYGPYTNWEGRGFPDVAGHSVAPDYEVIYNGKQARSGGTSAAAPVWAAIVGLLNDARFKAGKKSLGWLNPLIYKHGPKVLTDITGGYAIGCDGNNTQSGKPEPAGSGLVPGARWNATAGWDPTTGYGTPNFQKLKDLVLSL
chain 2: CQTSITPSCLKQMYNIGDYTPDAKSGSEIGFSSFLGQAAIYSDVFKFEELFGIPKQNYTTILINNGTDDQNTAHGNFGEANLDAENIVGIAHPLPFKQYITGGSPPFVPNIDQPTEKDNQNEPYVPFFRYLLGQKDLPAVISTSYGDEEDSVPREYATLTCNMIGLLGLRGISVIFSSGDIGVGSGCLAPDYKTVEFNAIFPATCPYLTSVGGTVDVTPEIAWEGSSGGFSKYFPRPSYQDKAIKKYMKTVSKETKKYYGPYTNWEGRGFPDVAGHSVAPDYEVIYNGKQARSGGTSAAAPVWAAIVGLLNDARFKAGKKSLGWLNPLIYKHGPKVLTDITGGYAIGCDGNNTQSGKPEPAGSGLVPGARWNATAGWDPTTGYGTPNFQKLKDLVLS

Legend:
[1] = biological target: proline tolerant tripeptidyl peptidase (TRI083); assay: Product inhibition of TRI083 (Ala-Ala-Ala-pNA substrate); format: biochemical, T. reesei; conditions: treated as competitive inhibitors
Procedure: For proline tolerant tripeptidyl peptidase the chromogenic peptide H-Ala-Ala-Ala-pNA was used. The assay was conducted as follows, 27.5 μL of appropriately diluted enzyme was added to 200 μl McIlvaine buffer (20 mM, pH 4.0). After incubation at 50° C. for 5 min, 12.5 μL of the chromogenic peptide solution (5 mg/mL dissolved in dimethyl sulfoxide (DMSO); Sigma-Aldrich, Denmark) were added to the reaction mixture. The reaction was terminated by adding 50 μL of 0.5 M trichloroacetic acid (TCA; Sigma-Aldrich, Denmark). After centrifugation (15,000×g, 5 min), 240 μL of the solution were transferred to a microtiter plate (MTP; Kisker-biotech, Germany) and the absorption was measured in an MTP reader (Molecular Devices, Denmark) at 405 nm. One katal of proteolytic activity was defined as the amount of enzyme required to release 1 mol of p-nitroaniline per second.
Inhibition experiments were conducted with TRI083 and Ala-Ala-Ala-pNA ([…]) as substrate in the assay described in Example 8. The assay was run without inhibitor, with 3.6 mM tripeptide (H-Ala-Ala-Ala-OH; Bachem, Switzerland), 18 mM dipeptide (H-Ala-Ala-OH; Bachem, Switzerland) or 18 mM alanine (Sigma-Aldrich, Denmark). […]
Subsequently, TRI083 was analyzed for product inhibition without inhibitor, with 1 mg/mL H-Ala-Ala-Ala-OH as well with the PepN pre-hydrolyzed H-Ala-Ala-Ala-OH (1 mg/mL).

H-Ala-Ala-Phe-pNA = assay: Low pH stability of tripeptidyl peptidases (pH 2.5, 40° C., 60 min), activity on H-Ala-Ala-Phe-pNA; format: biochemical; conditions: for OD410nm (Final): after pH 2.5, 40° C., 60 min; for OD410nm (Initial): without incubation at 40° C. for 60 min
Procedure: As requirements for utilization of the enzymes in feed for monogastric animals, the enzymes should be active at lower pH. For this reason the number of tripeptidyl peptidases has been tested with the reaction on synthetic substrate AAF (H-Ala-Ala-Phe-pNA. BACHEM, L-1095), at pH 2.5.
The tripeptide substrate AAF was prepared at 2.5 mg/ml in DMSO. Tripeptidyl peptidases were used as broth. The reaction mixture containing 2.5 μl enzyme and 90 μL glycine acetic acid-Tris buffer (each buffer components at 50 mM, pH 2.5) was prepared in 96 well incubation plates.
The incubation plate was mixed and incubated at 40° C. for 60 min. Then 50 μl 0.2M Mes-NaOH pH6.0 was added to each well, mixed at 600 rpm for 2 min. After that, 5 ul of the incubation mixture were taken to 96 well assay plate already filled with 85 μl 0.1M acetic acid buffer, pH4.0 and 5 μl 2.5 mg/ml AAF substrate solution.
The reaction mixture was stirred at 600 rpm for 2 min and read directly in a microplate reader (Molecular Devices, Denmark) at 410 nm at 30° C. every 30 second for 15 min.
To measure initial enzyme activity, similar procedure was performed except the step of enzyme incubation at 40° C. for 60 min.

[2] = test system: whey protein isolate (WPI); assay: 15% WPI hydrolysis with endopeptidase and proline tolerant tripeptidyl peptidase homologues; format: biochemical; conditions: after 7 h of hydrolysis, compared to the reference (endopeptidase); FIG. 14
Procedure: For WPI hydrolysis, Lacprodan-9224 (Arla Food Ingredients, Denmark) was employed, a 15% (w/w) WPI suspension was prepared in H2Od and adjusted to pH 4.5 with acetic acid (Sigma-Aldrich, Denmark). To prevent microbial growth, 0.0285% (w/w) NaN3 was added. Subsequently, 1% (w/w) Alphalase® FP2 was added and a volume of 200 μl of the WPI suspension was transferred into each of the 96 wells of a microtiter plate (MTP; VWR, Denmark). Following this, 5 μl of each proline tolerant tripeptidyl peptidase homologue containing either 0 or 4375nkatH-Ala-Ala-Ala-pNA/mL were added to the particular wells of the MTP. Then, the MTP was sealed and placed in an incubator at 40° C. (iEMS incubator/shaker HT, Thermo Scientific, Denmark).
[…] Unhydrolyzed, precipitated WPI was removed by filtration (0.22 μm; Corning 3504 filter plate, Corning Incorporated, USA). The filtered WPI hydrolysate was employed for o-phthaldehyde (OPA) derivatization (Nielsen, Petersen et al. 2001). The OPA derivatization was conducted according to Nielsen et al., (2001) with minor modifications. A sample volume of 25 μl was transferred to a well and 175 μl of OPA-reagent, dissolved in trisodium phosphate-dodecahydrate, was added subsequently. The measured absorptions at 340 nm in a MTP reader (VersaMax, Molecular Devices, Denmark) were transformed into serine equivalents employing a serine calibration curve (0-2 mM).

[3] = listed as TRI071 (pool1) 2% glu/soph
[4] = listed as TRI071 (pool1) 4% glu/soph

Molecule | Ki [1] | OD410nm (Final) (H-Ala-Ala-Phe-pNA; [3]) | OD410nm (Final) (H-Ala-Ala-Phe-pNA; [4]) | OD410nm (Initial) (H-Ala-Ala-Phe-pNA; [3]) | OD410nm (Initial) (H-Ala-Ala-Phe-pNA; [4]) | relative increase of SE [2]
C[C@H](N)C(=O)O [Alanine, alanine] | no inhibition at all | – | – | – | – | –
B1 | – | 0.589 and 0.672 | 0.453 and 0.6 | 0.757 and 0.815 | 0.466 and 0.67 | about 64%
